Experimental data as given in patent US20170291948A1.
Substitutions are numbered along the chain they refer to. Each block holds one binder with its values, some of them ahead of it.

What was measured:
[1] = biological target: human NRP1 protein (human) (UniProt O14786); assay: SPR, Biacore T100
[2] = biological target: NRP1 expressed on the surface of cancer cells (NRP1-overexpressing patient-derived cells; U87MG glioblastoma cell line) (human) (UniProt O14786); assay: cell-based or functional assay
NRP1 expressed on the surface of cancer cells (NRP1-overexpressing patient-derived cells; U87MG glioblastoma cell line) (human), sequence (O14786 22-923): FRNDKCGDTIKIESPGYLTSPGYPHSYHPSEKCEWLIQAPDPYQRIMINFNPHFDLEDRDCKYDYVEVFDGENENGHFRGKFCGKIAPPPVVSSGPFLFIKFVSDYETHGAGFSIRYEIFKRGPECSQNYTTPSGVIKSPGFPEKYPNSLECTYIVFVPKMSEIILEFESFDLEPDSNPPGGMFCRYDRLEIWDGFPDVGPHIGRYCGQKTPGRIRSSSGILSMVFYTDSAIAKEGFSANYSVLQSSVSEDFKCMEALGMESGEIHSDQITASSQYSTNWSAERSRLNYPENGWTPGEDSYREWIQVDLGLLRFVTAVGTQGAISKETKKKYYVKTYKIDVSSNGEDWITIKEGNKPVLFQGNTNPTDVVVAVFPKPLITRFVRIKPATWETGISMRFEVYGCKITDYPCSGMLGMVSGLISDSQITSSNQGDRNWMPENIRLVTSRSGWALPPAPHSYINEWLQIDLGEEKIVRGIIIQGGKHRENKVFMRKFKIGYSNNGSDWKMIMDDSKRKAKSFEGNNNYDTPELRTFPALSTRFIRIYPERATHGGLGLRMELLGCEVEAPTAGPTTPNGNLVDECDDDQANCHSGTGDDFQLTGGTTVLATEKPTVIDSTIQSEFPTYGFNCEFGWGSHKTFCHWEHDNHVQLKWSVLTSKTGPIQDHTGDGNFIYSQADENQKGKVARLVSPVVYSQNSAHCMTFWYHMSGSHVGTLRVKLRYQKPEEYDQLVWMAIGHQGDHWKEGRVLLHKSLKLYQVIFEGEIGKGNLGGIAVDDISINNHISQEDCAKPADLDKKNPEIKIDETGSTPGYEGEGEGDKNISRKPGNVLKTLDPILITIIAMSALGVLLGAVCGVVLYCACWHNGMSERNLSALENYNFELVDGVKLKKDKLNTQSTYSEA

human NRP1 protein (human), sequence (O14786 other isoform, or with tags, fused parts or gaps limits assumed): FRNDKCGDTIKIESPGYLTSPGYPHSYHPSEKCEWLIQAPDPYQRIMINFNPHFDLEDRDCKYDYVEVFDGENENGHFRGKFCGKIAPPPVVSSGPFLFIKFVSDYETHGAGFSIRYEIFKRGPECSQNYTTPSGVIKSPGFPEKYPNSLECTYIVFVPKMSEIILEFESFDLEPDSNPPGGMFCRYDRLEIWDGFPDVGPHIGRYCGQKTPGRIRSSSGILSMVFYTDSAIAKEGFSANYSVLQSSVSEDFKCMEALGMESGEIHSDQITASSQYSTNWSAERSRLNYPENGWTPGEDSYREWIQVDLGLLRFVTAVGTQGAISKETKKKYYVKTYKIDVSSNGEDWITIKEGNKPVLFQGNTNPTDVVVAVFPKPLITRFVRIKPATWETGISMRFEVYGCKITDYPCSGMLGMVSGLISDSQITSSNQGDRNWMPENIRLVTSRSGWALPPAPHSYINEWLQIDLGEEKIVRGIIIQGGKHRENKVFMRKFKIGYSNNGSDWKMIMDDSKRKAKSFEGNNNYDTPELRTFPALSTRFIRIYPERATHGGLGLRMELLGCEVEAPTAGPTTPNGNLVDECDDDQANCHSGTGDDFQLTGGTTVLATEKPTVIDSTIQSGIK

Kd [1]: 89.4 nM
cell migration of U87MG cells (transwell), untreated control = 100% [2]: 41%
B1: 1A03 scFv antibody fragment (scFv, part only; not given: linker, domain order, His and HA tags, V domains shown, not shown: another chain or arm of the molecule; large carriers; small tags and cut ends)
VH: EVQLLESGGGLVQPGGSLRLSCAASGFTFSSYYMSWVRQAPGKGLEWVSAISPGSSNKYYADSVQGRFTISRDNSKNTLYLQMNSLRAEDTAVYYCARRKKSFDYWGQGTLVTVSS
VL: QSVLTQPPSASGTPGQRVTISCSGPSSNIGNNDVSWYQQLPGTAPKLLIYSDNNRPSGVPDRFSGSKSGTSASLAISGLRSEDEADYYCGAWVASLSAYVFGGGTKLTVL

Kd [1]: 295 nM
cell migration of U87MG cells (transwell), untreated control = 100% [2]: 46%
B2: 3H10 scFv antibody fragment (scFv, part only; not given: linker, domain order, His and HA tags, V domains shown, not shown: another chain or arm of the molecule; large carriers; small tags and cut ends)
VH: B1 VH with Q65K, K101Y, S102M
VL: B1 VL with S23T, P25S, S35Y, N53S, G90A, A91S, V93D, A94S, A98G
